What all share (test): two-hybrid; MAPPIT (mammalian two-hybrid) in intact HEK293T cells: bait on the EpoR/leptin receptor chimera, prey on gp130 fragments, pXP2d2-rPAP1-luciferase reporter; fold induction of luciferase, Epo-stimulated (10 ng/ml hEpo) over unstimulated; 6-well or 96-well calcium phosphate transfection
In general terms: A reporter such as luciferase makes a cellular process visible.

Assay [1] deals with Apobec3G D128H MAPPIT bait (human) (UniProt Q9HC16).
Assay [2] deals with Apobec3G D128Q MAPPIT bait (human) (UniProt Q9HC16).
Apobec3G D128Q MAPPIT bait (human), sequence (Q9HC16 whole entry D128Q): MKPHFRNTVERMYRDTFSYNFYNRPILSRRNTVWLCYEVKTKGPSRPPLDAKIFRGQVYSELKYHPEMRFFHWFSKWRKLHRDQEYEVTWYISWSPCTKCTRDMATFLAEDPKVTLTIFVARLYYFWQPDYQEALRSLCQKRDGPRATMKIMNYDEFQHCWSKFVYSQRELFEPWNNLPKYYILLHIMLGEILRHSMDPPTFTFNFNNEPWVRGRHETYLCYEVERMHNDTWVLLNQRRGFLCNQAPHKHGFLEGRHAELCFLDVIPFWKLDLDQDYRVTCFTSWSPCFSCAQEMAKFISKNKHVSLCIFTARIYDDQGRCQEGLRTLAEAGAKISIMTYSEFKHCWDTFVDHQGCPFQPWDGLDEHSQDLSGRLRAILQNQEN
Assay [3] concerns the target Apobec3G D130A MAPPIT bait (human) (UniProt Q9HC16).
In assay [4] the target is Apobec3G K99D MAPPIT bait (human) (UniProt Q9HC16).
Apobec3G K99D MAPPIT bait (human), sequence (Q9HC16 whole entry K99D): as the sequence (Q9HC16 whole entry D128Q) above, with K99D, Q128D counted along it
For assay [5], the target named is Apobec3G L184A MAPPIT bait (human) (UniProt Q9HC16).
Apobec3G L184A MAPPIT bait (human), sequence (Q9HC16 whole entry L184A): as the sequence (Q9HC16 whole entry D128Q) above, with Q128D, L184A counted along it
The target of assay [6] is Apobec3G LS27-28AA MAPPIT bait (human) (UniProt Q9HC16).
Apobec3G LS27-28AA MAPPIT bait (human), sequence (Q9HC16 whole entry L27A/S28A): as the sequence (Q9HC16 whole entry D128Q) above, with L27A, S28A, Q128D counted along it
The target in assay [7] is Apobec3G N20A MAPPIT bait (human) (UniProt Q9HC16).
Apobec3G N20A MAPPIT bait (human), sequence (Q9HC16 whole entry N20A): as the sequence (Q9HC16 whole entry D128Q) above, with N20A, Q128D counted along it
Assay [8] has as its target Apobec3G N31S MAPPIT bait (human) (UniProt Q9HC16).
Assay [9] has as its target Apobec3G P129A MAPPIT bait (human) (UniProt Q9HC16).
For assay [10], the target named is Apobec3G R11S MAPPIT bait (human) (UniProt Q9HC16).
Apobec3G R11S MAPPIT bait (human), sequence (Q9HC16 whole entry R11S): as the sequence (Q9HC16 whole entry D128Q) above, with R11S, Q128D counted along it
Assay [11] has as its target Apobec3G R136A MAPPIT bait (human) (UniProt Q9HC16).
Assay [12] deals with Apobec3G T32Q MAPPIT bait (human) (UniProt Q9HC16).
Apobec3G T32Q MAPPIT bait (human), sequence (Q9HC16 whole entry T32Q): as the sequence (Q9HC16 whole entry D128Q) above, with T32Q, Q128D counted along it
The target in assay [13] is Apobec3G TK98-99AD MAPPIT bait (human) (UniProt Q9HC16).
Apobec3G TK98-99AD MAPPIT bait (human), sequence (Q9HC16 whole entry T98A/K99D): as the sequence (Q9HC16 whole entry D128Q) above, with T98A, K99D, Q128D counted along it
Assay [14] addresses Apobec3G TK98-99AS MAPPIT bait (human) (UniProt Q9HC16).
Assay [15] has as its target Apobec3G Y124A MAPPIT bait (human) (UniProt Q9HC16).
In assay [16] the target is Apobec3G YS166-167AA MAPPIT bait (human) (UniProt Q9HC16).
Apobec3G YS166-167AA MAPPIT bait (human), sequence (Q9HC16 whole entry Y166A/S167A): as the sequence (Q9HC16 whole entry D128Q) above, with Q128D, Y166A, S167A counted along it

Apobec3G Y124A MAPPIT bait (human), sequence (Q9HC16 whole entry Y124A): as the sequence (Q9HC16 whole entry D128Q) above, with Y124A, Q128D counted along it
Apobec3G TK98-99AS MAPPIT bait (human), sequence (Q9HC16 whole entry T98A/K99S): as the sequence (Q9HC16 whole entry D128Q) above, with T98A, K99S, Q128D counted along it
Apobec3G D128H MAPPIT bait (human), sequence (Q9HC16 whole entry D128H): as the sequence (Q9HC16 whole entry D128Q) above, with Q128H counted along it
Apobec3G D130A MAPPIT bait (human), sequence (Q9HC16 whole entry D130A): as the sequence (Q9HC16 whole entry D128Q) above, with Q128D, D130A counted along it
Apobec3G N31S MAPPIT bait (human), sequence (Q9HC16 whole entry N31S): as the sequence (Q9HC16 whole entry D128Q) above, with N31S, Q128D counted along it
Apobec3G P129A MAPPIT bait (human), sequence (Q9HC16 whole entry P129A): as the sequence (Q9HC16 whole entry D128Q) above, with Q128D, P129A counted along it
Apobec3G R136A MAPPIT bait (human), sequence (Q9HC16 whole entry R136A): as the sequence (Q9HC16 whole entry D128Q) above, with Q128D, R136A counted along it

For the substance “Gagpol MAPPIT prey (pMG2-Gagpol) (natural protein)”, the MAPPIT signal, % of WT is 60 % of WT in [1]; 71 % of WT in assay [2]; 103 % of WT in assay [3]; 96 % of WT in assay [4]; 110 % of WT in assay [5]; 48 % of WT in assay [6]. The MAPPIT signal, % of WT in assay [7] is 71 % of WT; in assay [8], 78 % of WT; in assay [9], 70 % of WT; in assay [10], 83 % of WT; in [11], 48 % of WT; in [12], 118 % of WT. Further, the MAPPIT signal, % of WT in assay [13] is 74 % of WT; in assay [14] it was 79 % of WT; in assay [15], 61 % of WT; in assay [16] it was 80 % of WT.
